The record followed here is patent US20230091315A1 (CISBIO BIOASSAYS, published 2023).

Test [1] deals with T1, human Gαq fused in its N-terminal part with the tags Twin-Strep-tag and FLAG, overexpressed in HEK293 cells (human, UniProt P50148 1-359).
T1 construct: not shown: N-terminal Twin-Strep-tag and FLAG tags
T1 sequence (looked up): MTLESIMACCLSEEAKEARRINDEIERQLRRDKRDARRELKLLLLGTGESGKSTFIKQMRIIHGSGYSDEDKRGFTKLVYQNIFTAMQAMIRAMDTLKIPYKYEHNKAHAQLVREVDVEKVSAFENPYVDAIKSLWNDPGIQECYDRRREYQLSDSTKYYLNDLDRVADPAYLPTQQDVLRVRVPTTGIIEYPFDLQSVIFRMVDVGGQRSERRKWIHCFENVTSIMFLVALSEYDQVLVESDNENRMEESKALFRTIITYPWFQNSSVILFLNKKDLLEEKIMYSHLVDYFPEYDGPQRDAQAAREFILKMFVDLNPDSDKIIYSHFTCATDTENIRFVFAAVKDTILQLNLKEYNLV
The experiment in a line: HTRF on HEK293 cells overexpressing the TST-Flag-tagged Gα: antibody-d2 (10 nM) + anti-Twin-Strep-tag-Lumi4 Tb, in buffer, GDP 10 µM or GTPγS 10 µM.

The target in test [2] is T2, human Gα13 fused in its N-terminal part with the tags Twin-Strep-tag and FLAG, overexpressed in HEK293 cells (human, UniProt Q14344 1-377).
T2 construct: not shown: N-terminal Twin-Strep-tag and FLAG tags
T2 sequence (looked up): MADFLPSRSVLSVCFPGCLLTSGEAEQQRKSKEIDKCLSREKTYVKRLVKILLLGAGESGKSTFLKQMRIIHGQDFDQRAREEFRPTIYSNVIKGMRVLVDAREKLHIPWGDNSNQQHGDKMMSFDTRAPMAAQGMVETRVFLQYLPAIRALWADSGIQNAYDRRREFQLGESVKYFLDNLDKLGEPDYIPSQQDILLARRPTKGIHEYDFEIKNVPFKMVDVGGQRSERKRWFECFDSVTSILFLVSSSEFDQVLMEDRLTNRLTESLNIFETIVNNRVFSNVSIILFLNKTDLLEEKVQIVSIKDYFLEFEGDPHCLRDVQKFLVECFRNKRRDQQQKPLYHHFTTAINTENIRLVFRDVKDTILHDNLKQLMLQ
Described as above.

Test [3] concerns the target T3, human Gα12 fused in its N-terminal part with the tags Twin-Strep-tag and FLAG, overexpressed in HEK293 cells (human, UniProt Q03113 1-381).
T3 construct: not shown: N-terminal Twin-Strep-tag and FLAG tags
T3 sequence (looked up): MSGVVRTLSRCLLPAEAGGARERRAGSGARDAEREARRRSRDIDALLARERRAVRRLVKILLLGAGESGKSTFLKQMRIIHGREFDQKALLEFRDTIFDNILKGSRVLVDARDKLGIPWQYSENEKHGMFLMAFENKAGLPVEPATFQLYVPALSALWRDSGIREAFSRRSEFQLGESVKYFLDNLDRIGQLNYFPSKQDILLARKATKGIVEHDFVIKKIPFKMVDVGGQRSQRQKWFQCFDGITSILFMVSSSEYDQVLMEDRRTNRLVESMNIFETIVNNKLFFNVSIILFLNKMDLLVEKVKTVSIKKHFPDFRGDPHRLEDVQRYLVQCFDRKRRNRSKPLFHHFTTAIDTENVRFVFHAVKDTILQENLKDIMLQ
The test is described as above.

The target of test [4] is T4, human Gαz fused in its N-terminal part with the tags Twin-Strep-tag and FLAG, overexpressed in HEK293 cells (human, UniProt P19086 1-355).
T4 construct: not shown: N-terminal Twin-Strep-tag and FLAG tags
T4 sequence (P19086 whole entry, the tested form may be a part): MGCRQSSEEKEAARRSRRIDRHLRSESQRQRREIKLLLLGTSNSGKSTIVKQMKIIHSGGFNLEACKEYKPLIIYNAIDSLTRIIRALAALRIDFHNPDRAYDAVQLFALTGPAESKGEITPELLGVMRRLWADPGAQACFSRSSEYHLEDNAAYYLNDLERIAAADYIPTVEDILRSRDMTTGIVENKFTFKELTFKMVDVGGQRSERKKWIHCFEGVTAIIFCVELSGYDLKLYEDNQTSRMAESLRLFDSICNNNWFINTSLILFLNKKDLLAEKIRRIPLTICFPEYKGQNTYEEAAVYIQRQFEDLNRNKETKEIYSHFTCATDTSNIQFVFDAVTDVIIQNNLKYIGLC
Put plainly: HTRF on HEK293 cells overexpressing the TST-Flag-tagged Gα: antibody-d2 (10 nM) + anti-Twin-Strep-tag-Lumi4 Tb (0.5 nM), in buffer, GDP 10 µM or GTPγS 10 µM.

The target in test [5] is T5, human Gαi3 fused in its N-terminal part with the tags Twin-Strep-tag and FLAG, overexpressed in HEK293 cells (human, UniProt P08754 1-354).
T5 construct: not shown: N-terminal Twin-Strep-tag and FLAG tags
T5 sequence (P08754 whole entry, the tested form may be a part): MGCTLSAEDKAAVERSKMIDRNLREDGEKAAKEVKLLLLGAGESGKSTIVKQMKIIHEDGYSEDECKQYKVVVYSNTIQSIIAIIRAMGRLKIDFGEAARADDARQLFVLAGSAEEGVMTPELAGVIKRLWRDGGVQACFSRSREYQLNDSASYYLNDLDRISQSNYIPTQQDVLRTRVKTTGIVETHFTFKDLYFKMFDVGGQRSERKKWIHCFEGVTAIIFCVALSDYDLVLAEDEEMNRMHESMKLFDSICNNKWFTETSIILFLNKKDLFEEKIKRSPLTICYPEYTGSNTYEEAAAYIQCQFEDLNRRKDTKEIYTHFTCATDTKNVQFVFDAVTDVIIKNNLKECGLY
Described as above.

Test [6] addresses T6, human Gαi2 fused in its N-terminal part with the tags Twin-Strep-tag and FLAG, overexpressed in HEK293 cells (human, UniProt P04899 1-355).
T6 construct: not shown: N-terminal Twin-Strep-tag and FLAG tags
Described as above.

T6 sequence (P04899 whole entry, the tested form may be a part): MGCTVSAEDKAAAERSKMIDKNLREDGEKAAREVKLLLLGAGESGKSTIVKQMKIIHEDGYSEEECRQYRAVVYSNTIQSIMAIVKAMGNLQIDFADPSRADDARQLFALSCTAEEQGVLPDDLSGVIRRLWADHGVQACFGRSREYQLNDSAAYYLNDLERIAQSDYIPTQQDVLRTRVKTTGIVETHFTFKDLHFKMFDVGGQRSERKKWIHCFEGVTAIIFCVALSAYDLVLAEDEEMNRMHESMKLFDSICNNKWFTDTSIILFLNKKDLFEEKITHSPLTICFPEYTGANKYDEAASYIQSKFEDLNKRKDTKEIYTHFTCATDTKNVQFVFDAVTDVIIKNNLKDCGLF

B1: antibody DSV36S (antibody, V domains shown)
VH: EVQLQQSGAELVRPGALVKLSCKASGFNIKDYYMHWVKQRPEQGLEWIGWIDPENGNTIYDPKFQGKASITADTSSNTAYLQLSSLTSEDTAVYYCTRGGGYYSDWYFDVWGAGTTVTVSS
VL: QIVLTQSPAIMSASPGEKVTMTCSASSSVSYMHWYQQKSGTSPKRWIYDTSKLASGVPARFSGSGSGTSYSLTISSMEAEDAATYYCQQWSSNPPITFGAGTKLELK
notes: Used unlabeled or labeled with d2 (acceptor) or Lumi4Tb (donor); also called DSV36S-d2; DSV36S-Lumi4Tb
Turning to B1, the binding result in test [1] is given as “no binding (tested: 10 nM)”; in test [2], “no binding (tested: 10 nM)”; in test [3] it was “no binding (tested: 10 nM)”; in test [4] it was “binds”; in test [5], “binds”; in test [6], “binds”.
